Paper doi:10.1101/2024.12.26.630402 (bioRxiv, 2024)

Target: the molecule itself
Assay: cryo-EM structure

B1: large glutamate dehydrogenase of 180 kDa subunits from Mycobacterium smegmatis (mL-GDH180) (enzyme)
chain: MIRRLSVAFLSTYRGPQADAPGVTSTGPLAVAAHDDLVSDDLVAAHYRLASMRAPGETKAAVYPGDAGSGAALQIVTDQAPMLVDSVTVLLHRHGIAYTAIMNPVFRVRRGLDGELLDVRPAAEAAPGDGADECWILVPITAAADGEALTEATRLVPGILAEARQIGLDSGAMIAALHGLANDLATDLEGHFPNAERKEVAALLRWLADGHFVLLGYQQCVVGDGNAEVDPASRLGVLRLRNDVLPPLTDSDDLLVLAQATMPSYLRYGAYPYIVVVRESPGASRVIEHRFVGLFTVAAMNANALEIPLISRRVEEALAMAHRDPSHPGQLLRDIIQTIPRPELFALSSKQLLEMALAVVDLGSRRRTLLFLRADHLAHFVSCLVYLPRDRYTTAVRLEMQDILVRELGGAGIDYSARVSESPWAVVHFTVRLPEGTAADSVDTSLENESRIQDLLTEATRNWGDRMISAAAAASISPAALEHYAHAFPEDYKQAFAPQDAIADISLIEALQDDSVKLVLADTAEDRVWKLTWYLGGHSASLSELLPMLQSMGVVVLEERPFTLRRTDGLPVWIYQFKISPHPSIPHAPDAEAQRDTAQRFADAVTAIWHGRVEIDRFNELVMRAGLTWQQVVVLRAYAKYLRQAGFPYSQSHIESVLNENPHTTRSLIDLFEALFDPSQETDGRRDAQGAAAAVAADIDALVSLDTDRVLRAFANLIEATLRTNYFVARPDSARARNVLAFKLNPLVIKELPLPRPKFEIFVYSPRVEGVHLRFGFVARGGLRWSDRREDFRTEILGLVKAQAVKNAVIVPVGAKGGFVVKRPPTLTGDAAADREATRAEGVECYRLFISGLLDVTDNVDKATGAVVTPPEVVRRDGEDAYLVVAADKGTATFSDIANEVAKSYGFWLGDAFASGGSIGYDHKAMGITAKGAWESVKRHFREMGVDTQTQDFTVVGIGDMSGDVFGNGMLLSKHIRLVAAFDHRDIFLDPNPDAGRSWDERKRLFDLPRSSWADYDKSLISEGGGVYSRQQKSIPISPQVRTALGLDADVEELTPPALIKAILKAPVDLLWNGGIGTYIKAETEADADVGDRANDQIRVCGNQVRAKVIGEGGNLGVTALGRIEFDLAGGRINTDALDNSAGVDCSDHEVNIKILIDSAVTAGKVTPEERTELLLSMTDEVGELVLADNRDQNDLMGTSRANAASLLSVHARMIKDLVDNRGLNRELEALPSEKEIRRRADAGIGLTSPELATLMAHVKLALKDDVLASDLPDQEVFASRLPYYFPTRLREELHGEIRSHQLRREIITTMLVNDLVDTAGISYAYRITEDVGVGPVDAVRSYVAINAIFGIGDVWRRIRAAGDAGVPTSVTDRMTLDLRRLVDRAGRWLLNYRPQPLAVGAEINRFGAKVAALTPRMSEWLRGDDKAIVSKEAGDFASHGVPEDLAYHIATGLYQYSLLDVIDIADIVDREPDEVADTYFALMDHLGADALLTAVSRLSRDDRWHSLARLAIRDDIYGSLRALCFDVLAVGEPDENGEEKIAEWETTNSSRVTRARRTLTEIYKDGEQDLATLSVAARQIRSMTRTSGTGTTG
In the case of B1, the “stoichiometry N” value is reported as 4.
